Assay results taken from patent US20210238276A1 (INTEGRAL MOLECULAR, published 2021).

Assays:
Test in all cases: flow cytometry, alanine-scan library in HEK-293T, with cytochalasin B
hsGLUT4 G504A = molecular target: T1, hsGLUT4 G504A (human, UniProt P14672 1-509)
T1 sequence: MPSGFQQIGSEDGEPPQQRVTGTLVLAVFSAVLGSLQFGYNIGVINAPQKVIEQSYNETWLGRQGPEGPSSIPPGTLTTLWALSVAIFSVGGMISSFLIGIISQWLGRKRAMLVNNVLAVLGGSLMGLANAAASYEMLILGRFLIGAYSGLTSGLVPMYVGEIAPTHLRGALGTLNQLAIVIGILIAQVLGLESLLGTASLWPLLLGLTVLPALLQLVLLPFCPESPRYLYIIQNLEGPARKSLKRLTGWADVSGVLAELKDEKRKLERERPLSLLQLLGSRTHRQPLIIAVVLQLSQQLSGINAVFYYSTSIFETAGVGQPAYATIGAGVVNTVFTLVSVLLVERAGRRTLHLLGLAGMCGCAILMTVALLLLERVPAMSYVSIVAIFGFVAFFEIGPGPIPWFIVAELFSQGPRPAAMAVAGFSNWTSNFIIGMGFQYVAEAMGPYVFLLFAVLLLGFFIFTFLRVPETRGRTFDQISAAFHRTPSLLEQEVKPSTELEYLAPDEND
Procedure: (§1) Because of the state-dependence of the isolated MAbs, we next wished to understand the mechanism by which each MAb could recognize GLUT4 in its different conformations. The residues required for binding of each MAb were determined using shotgun mutagenesis comprehensive alanine scanning (Davidson E & Doranz B J (2014) A High-Throughput Shotgun Mutagenesis Approach to Mapping B-cell Antibody Epitopes. Immunology, which is hereby incorporated by reference in its entirety). All residues of hsGLUT4 were individually mutated to alanine, with existing alanines changed to serines. Mutations were obtained for 508 of the 509 residues of GLUT4 (excluding the initiating methionine). The entire mutation library was transfected into human HEK-293T cells in a 384-well array format (one clone per well) and assessed for immunoreactivity using high-throughput flow cytometry.
(§2) HEK-293T cells were transfected by CaPO₄ with plasmids in 6-well culture plates (Falcon) at 750,000 cells/well. At 48 hours post transfection, cells were stained with anti-V5 and anti-GLUT4 MAbs (purified scFv, 2 μg/ml) followed by biotinylated goat anti-mouse or human antibody (1:500) and streptavidin-PerCP (1:500). Fluorescence was detected using an Intellicyt high-throughput flow cytometer (HTFC; Intellicyt, Albuquerque, N. Mex.). For cell permeabilization, cells were treated with saponin at 0.1% in PBS for 20 minutes. To discriminate intact (live) and permeabilized (dead) cells without the use of detergent, propidium iodide (PI) was added to HEK-293T cells at 1 ug/ml just prior to flow cytometry. Where indicated, cytochalasin B (Sigma) was used at a final concentration of 10 uM and phloretin (Sigma) was used at a final concentration of 100 uM, each added in 10% NGS for 30 minutes prior to antibody staining as well as included with the primary antibody.

hsGLUT4 L296A = molecular target: T2, hsGLUT4 L296A (human, UniProt P14672 1-509)
T2 sequence: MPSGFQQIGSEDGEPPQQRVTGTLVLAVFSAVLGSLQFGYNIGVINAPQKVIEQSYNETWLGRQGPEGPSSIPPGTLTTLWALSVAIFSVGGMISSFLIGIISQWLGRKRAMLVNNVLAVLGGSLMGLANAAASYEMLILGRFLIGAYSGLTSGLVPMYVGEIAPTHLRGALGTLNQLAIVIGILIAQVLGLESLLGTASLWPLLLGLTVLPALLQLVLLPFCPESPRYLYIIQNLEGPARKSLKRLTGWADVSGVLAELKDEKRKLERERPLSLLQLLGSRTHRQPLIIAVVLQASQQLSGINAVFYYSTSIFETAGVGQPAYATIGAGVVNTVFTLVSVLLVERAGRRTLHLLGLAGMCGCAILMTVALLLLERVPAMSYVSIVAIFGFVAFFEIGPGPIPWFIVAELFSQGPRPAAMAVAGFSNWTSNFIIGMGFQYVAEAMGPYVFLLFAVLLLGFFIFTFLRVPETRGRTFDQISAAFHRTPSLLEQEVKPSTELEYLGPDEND
Procedure: as §1, §2

hsGLUT4 N508A = molecular target: T3, hsGLUT4 N508A (human, UniProt P14672 1-509)
T3 sequence: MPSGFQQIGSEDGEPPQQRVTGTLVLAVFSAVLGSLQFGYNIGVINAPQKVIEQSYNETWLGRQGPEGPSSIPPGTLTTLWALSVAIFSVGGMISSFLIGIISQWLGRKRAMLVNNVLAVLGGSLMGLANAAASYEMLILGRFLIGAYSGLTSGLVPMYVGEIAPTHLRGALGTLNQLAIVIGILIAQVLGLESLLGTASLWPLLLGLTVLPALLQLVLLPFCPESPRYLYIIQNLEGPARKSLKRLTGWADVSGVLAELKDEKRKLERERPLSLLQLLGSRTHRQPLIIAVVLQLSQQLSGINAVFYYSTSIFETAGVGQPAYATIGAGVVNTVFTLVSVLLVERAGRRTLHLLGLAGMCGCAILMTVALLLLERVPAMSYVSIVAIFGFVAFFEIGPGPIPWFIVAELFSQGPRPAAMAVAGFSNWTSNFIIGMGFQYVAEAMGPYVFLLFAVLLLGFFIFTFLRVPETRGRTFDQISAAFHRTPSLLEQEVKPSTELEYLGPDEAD
Procedure: as §1, §2

hsGLUT4 R169A = molecular target: T4, hsGLUT4 R169A (human, UniProt P14672 1-509)
T4 sequence: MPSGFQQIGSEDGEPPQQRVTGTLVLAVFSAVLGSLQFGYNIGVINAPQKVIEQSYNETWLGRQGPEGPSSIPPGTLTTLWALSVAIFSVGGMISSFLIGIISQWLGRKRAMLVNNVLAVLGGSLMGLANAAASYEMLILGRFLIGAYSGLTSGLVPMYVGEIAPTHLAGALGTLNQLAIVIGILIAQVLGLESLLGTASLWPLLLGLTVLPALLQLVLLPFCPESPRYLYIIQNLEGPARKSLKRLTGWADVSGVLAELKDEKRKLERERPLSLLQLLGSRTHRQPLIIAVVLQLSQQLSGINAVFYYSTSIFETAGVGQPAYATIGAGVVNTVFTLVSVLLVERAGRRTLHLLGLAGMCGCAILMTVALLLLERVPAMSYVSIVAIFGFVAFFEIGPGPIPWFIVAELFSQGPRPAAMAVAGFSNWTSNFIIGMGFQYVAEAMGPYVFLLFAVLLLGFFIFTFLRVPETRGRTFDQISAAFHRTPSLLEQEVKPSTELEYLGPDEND
Procedure: as §1, §2

B1: AB102 (Fc fusion)
scFv: ALTQPSSVSANLGGTVKITCSGGGSYGYGWYQQKSPGSAPVTVIYSNDQRPSDIPSRFSGSKSGSTATLTITGVRAEDEAIYYCGSTDSDYVGIFGAGTTLTVLGQSSRSSGGGGSSGGGGSAVTLDESGGGLQTPGGTLSLVCKASGFDFSSYATIWVRQAPGKGLEWVAGISGTGTGSSTGYAPAVKGRATISRDNGQSTVRLQLNNLRAEDTGSYFCAKSTGYGDSWIYPDSIDAWGHGTEVIVSS
notes: also called MAb AB102; not shown: Fc fragment of human IgG1, cloned in frame with the scFv
% of binding to wild type GLUT4 (hsGLUT4 G504A): 71%
% of binding to wild type GLUT4 (hsGLUT4 L296A): 69%
% of binding to wild type GLUT4 (hsGLUT4 N508A): 70%
% of binding to wild type GLUT4 (hsGLUT4 R169A): 77%
